Results taken from publication PMC11098746 (2024).
No end group written: not given here.

B1: ADP106 (protein)
chain: MAGGRCGPQLTALLAAWIAAVAATAGPEEAALPPEQSRVQPMTASNWTLVMEGEWMLKFYAPWCPSCQQTDSEWEAFAKNGEILQISVGKVDVIQEPGLSGRFFVTTLPAFFHAKDGIFRRYRGPGIFEDLQNYILEKKWQSVEPLTGWKSPASLTMSGMAGLFSISGKIWHLHNYFTVTLGIP
modifications: bait human Fc-tagged dimer
B2: ADP307 (protein)
chain: MALSVPLLLGLLGLAVAEPAVYFKEQFLDGDGWTSRWIESKHKSDFGKFVLSSGKFYGDEEKDKGLQTSQDARFYALSASFEPFSNKGQTLVVQFTVKHEQNIDCGGGYVKLFPNSLDQTDMHGDSEYNIMFGPDICGPGTKKVHVIFNYKGKNVLINKDIRCKDDEFTHLYTLIVRPDNTYEVKIDNSQVESGSLEDDWDFLPPKKIKDPDASKPEDWDERAKIDDPTDSKPEDWDKPEHIPDPDAKKPEDWDEEMDGEWEPPVIQNPEYKGEWKPRQIDNPDYKGTWIHPEIDNPEYSPDPSIYAYDNFGVLGLDLWQVKSGTIFDNFLITNDEAYAEEFGNETWGVTKAAEKQMKDKQDEEQRLKEEEEDKKRKEEEEAEDKEDDEDKDEDEEDEEDKEEDEEEDVPGQAKDEL
modifications: bait human Fc-tagged dimer
B3: ADP315 (protein)
chain: MARAHWGCCPWLVLLCACAWGHTKPVDLGGQDVRNCSTNPPYLPVTVVNTTMSLTALRQQMQTQNLSAYIIPGTDAHMNEYIGQHDERRAWITGFTGSAGTAVVTMKKAAVWTDSRYWTQAERQMDCNWELHKEVGTTPIVTWLLTEIPAGGRVGFDPFLLSIDTWESYDLALQGSNRQLVSITTNLVDLVWGSERPPVPNQPIYALQEAFTGSTWQEKVSGVRSQMQKHQKVPTAVLLSALEETAWLFNLRASDIPYNPFFYSYTLLTDSSIRLFANKSRFSSETLSYLNSSCTGPMCVQIEDYSQVRDSIQAYSLGDVRIWIGTSYTMYGIYEMIPKEKLVTDTYSPVMMTKAVKNSKEQALLKASHVRDAVAVIRYLVWLEKNVPKGTVDEFSGAEIVDKFRGEEQFSSGPSFETISASGLNAALAHYSPTKELNRKLSSDEMYLLDSGGQYWDGTTDITRTVHWGTPSAFQKEAYTRVLIGNIDLSRLIFPAATSGRMVEAFARRALWDAGLNYGHGTGHGIGNFLCVHEWPVGFQSNNIAMAKGMFTSIEPGYYKDGEFGIRLEDVALVVEAKTKYPGSYLTFEVVSFVPYDRNLIDVSLLSPEHLQYLNRYYQTIREKVGPELQRRQLLEEFEWLQQHTEPLA
modifications: bait human Fc-tagged dimer
B4: ADP098 (protein)
chain: RELPAQKWWHTGALYRIGDLQAFQGHGAGNLAGLKGRLDYLSSLKVKGLVLGPIHKNQKDDVAQTDLLQIDPNFGSKEDFDSLLQSAKKKSIRVILDLTPNYRGENSWFSTQVDTVATKVKDALEFWLQAGVDGFQVRDIENLKDASSFLAEWQNITKGFSEDRLLIAGTNSSDLQQILSLLESNKDLLLTSSYLSDSGSTGEHTKSLVTQYLNATGNRWCSWSLSQARLLTSFLPAQLLRLYQLMLFTLPGTPVFSYGDEIGLDAAALPGQPMEAPVMLWDESSFPDIPGAVSANMTVKGQSEDPGSLLSLFRRLSDQRSKERSLLHGDFHAFSAGPGLFSYIRHWDQNERFLVVLNFGDVGLSAGLQASDLPASASLPAKADLLLSTQPGREEGSPLELERLKLEPHEGLLLRFPYAA
modifications: bait human Fc-tagged dimer
B5: ADP114 (protein)
chain: MVMSVGLSLLLPLWGRTFLLLLSVVMAQSHWPSEPSEAVRDWENQLEASMHSVLSDLHEAVPTVVGIPDGTAVVGRSFRVTIPTDLIASSGDIIKVSAAGKEALPSWLHWDSQSHTLEGLPLDTDKGVHYISVSATRLGANGSHIPQTSSVFSIEVYPEDHSDLQSVRTASPDPGEVVSSACAADEPVTVLTVILDADLTKMTPKQRIDLLHRMRSFSEVELHNMKLVPVVNNRLFDMSAFMAGPGNPKKVVENGALLSWKLGCSLNQNSVPDIHGVEAPAREGAMSAQLGYPVVGWHIANKKPPLPKRVRRQIHATPTPVTAIGPPTTAIQEPPSRIVPTPTSPAIAPPTETMAPPVRDPVPGKPTVTIRTRGAIIQTPTLGPIQPTRVSEAGTTVPGQIRPTMTIPGYVEPTAVATPPTTTTKKPRVSTPKPATPSTDSTTTTTRRPTKKPRTPRPVPRVTTKVSITRLETASPPTRIRTTTSGVPRGGEPNQRPELKNHIDRVDAWVGTYFEVKIPSDTFYDHEDTTTDKLKLTLKLREQQLVGEKSWVQFNSNSQLMYGLPDSSHVGKHEYFMHATDKGGLSAVDAFEIHVHRRPQGDRAPARFKAKFVGDPALVLNDIHKKIALVKKLAFAFGDRNCSTITLQNITRGSIVVEWTNNTLPLEPCPKEQIAGLSRRIAEDDGKPRPAFSNALEPDFKATSITVTGSGSCRHLQFIPVVPPRRVPSEAPPTEVPDRDPEKSSEDDVYLHT
modifications: bait human Fc-tagged dimer
B6: ADP116 (protein)
chain: MVTLQTWLVQALFIFLTTESTGELLDPCGYISPESPVVQLHSNFTAVCVLKEKCMDYFHVNANYIVWKTNHFTIPKEQYTIINRTASSVTFTDIASLNIQLTCNILTFGQLEQNVYGITIISGLPPEKPKNLSCIVNEGKKMRCEWDGGRETHLETNFTLKSEWATHKFADCKAKRDTPTSCTVDYSTVYFVNIEVWVEAENALGKVTSDHINFDPVYKVKPNPPHNLSVINSEELSSILKLTWTNPSIKSVIILKYNIQYRTKDASTWSQIPPEDTASTRSSFTVQDLKPFTEYVFRIRCMKEDGKGYWSDWSEEASGITYEDRPSKAPSFWYKIDPSHTQGYRTVQLVWKTLPPFEANGKILDYEVTLTRWKSHLQNYTVNATKLTVNLTNDRYLATLTVRNLVGKSDAAVLTIPACDFQATHPVMDLKAFPKDNMLWVEWTTPRESVKKYILEWCVLSDKAPCITDWQQEDGTVHRTYLRGNLAESKCYLITVTPVYADGPGSPESIKAYLKQAPPSKGPTVRTKKVGKNEAVLEWDQLPVDVQNGFIRNYTIFYRTIIGNETAVNVDSSHTEYTLSSLTSDTLYMVRMAAYTDEGGKDGPEFTFTTPKFAQGEIE
modifications: bait human Fc-tagged dimer
B7: ADP107 (protein)
chain: MGTKAQVERKLLCLFILAILLCSLALGSVTVHSSEPEVRIPENNPVKLSCAYSGFSSPRVEWKFDQGDTTRLVCYNNKITASYEDRVTFLPTGITFKSVTREDTGTYTCMVSEEGGNSYGEVKVKLIVLVPPSKPTVNIPSSATIGNRAVLTCSEQDGSPPSEYTWFKDGIVMPTNPKSTRAFSNSSYVLNPTTGELVFDPLSASDTGEYSCEARNGYGTPMTSNAVRMEAVERNVGV
modifications: bait human Fc-tagged dimer
B8: ADP385 (protein)
chain: TIKANSEACRDGLRAVMECRNVTHLLQQELTEAQKGFQDVEAQAATCNHTVMALMASLDAEKAQGQKKVEELEGEITTLNHKLQDASAEVERLRRENQVLSVRIADKKYYPSSQDSSSAAAPQLLIVLLGLSALLQ
modifications: bait human Fc-tagged dimer
B9: ADP370 (protein)
chain: MICQKFCVVLLHWEFIYVITAFNLSYPITPWRFKLSCMPPNSTYDYFLLPAGLSKNTSNSNGHYETAVEPKFNSSGTHFSNLSKTTFHCCFRSEQDRNCSLCADNIEGKTFVSTVNSLVFQQIDANWNIQCWLKGDLKLFICYVESLFKNLFRNYNYKVHLLYVLPEVLEDSPLVPQKGSFQMVHCNCSVHECCECLVPVPTAKLNDTLLMCLKITSGGVIFQSPLMSVQPINMVKPDPPLGLHMEITDDGNLKISWSSPPLVPFPLQYQVKYSENSTTVIREADKIVSATSLLVDSILPGSSYEVQVRGKRLDGPGIWSDWSTPRVFTTQDVIYFPPKILTSVGSNVSFHCIYKKENKIVPSKEIVWWMNLAEKIPQSQYDVVSDHVSKVTFFNLNETKPRGKFTYDAVYCCNEHECHHRYAELYVIDVNINISCETDGYLTKMTCRWSTSTIQSLAESTLQLRYHRSSLYCSDIPSIHPISEPKDCYLQSDGFYECIFQPIFLLSGYTMWIRINHSLGSLDSPPTCVLPDSVVKPLPPSSVKAEITINIGLLKISWEKPVFPENNLQFQIRYGLSGKEVQWKMYEVYDAKSKSVSLPVPDLCAVYAVQVRCKRLDGLGYWSNWSNPAYTVVMDIKVPMRGPEFWRIINGDTMKKEKNVTLLWKPLMKNDSLCSVQRYVINHHTSCNGTWSEDVGNHTKFTFLWTEQAHTVTVLAINSIGASVANFNLTFSWPMSKVNIVQSLSAYPLNSSCVIVSWILSPSDYKLMYFIIEWKNLNEDGEIKWLRISSSVKKYYIHDHFIPIEKYQFSLYPIFMEGVGKPKIINSFTQDDIEKHQSDA
modifications: bait human Fc-tagged dimer
B10: ADP295 (protein)
chain: MALLLCFVLLCGVVDFARSLSITTPEEMIEKAKGETAYLPCKFTLSPEDQGPLDIEWLISPADNQKVDQVIILYSGDKIYDDYYPDLKGRVHFTSNDLKSGDASINVTNLQLSDIGTYQCKVKKAPGVANKKIHLVVLVKPSGARCYVDGSEEIGSDFKIKCEPKEGSLPLQYEWQKLSDSQKMPTSWLAEMTSSVISVKNASSEYSGTYSCTVRNRVGSDQCLLRLNVVPPSNKAG
modifications: bait human Fc-tagged dimer
B11: ADP318 (protein)
chain: MAGRLWPLLLSILTATAVPGPSLRRPSRELDATPRMTIPYEELSGTRHFKGQAQNYSTLLLEEASARLLVGARGALFSLSANDIGDGAHKEIHWEASPEMQSKCHQKGKNNQTECFNHVRFLQRLNSTHLYACGTHAFQPLCAAIDAEAFTLPTSFEEGKEKCPYDPARGFTGLIIDGGLYTATRYEFRSIPDIRRSRHPHSLRTEETPMHWLNDAEFVFSVLVRESKASAVGDDDKVYYFFTERATEEGSGSFTQSRSSHRVARVARVCKGDLGGKKILQKKWTSFLKARLICHIPLYETLRGVCSLDAETSSRTHFYAAFTLSTQWKTLEASAICRYDLAEIQAVFAGPYMEYQDGSRRWGRYEGGVPEPRPGSCITDSLRSQGYNSSQDLPSLVLDFVKLHPLMARPVVPTRGRPLLLKRNIRYTHLTGTPVTTPAGPTYDLLFLGTADGWIHKAVVLGSGMHIIEETQVFRESQSVENLVISLLQHSLYVGAPSGVIQLPLSSCSRYRSCYDCILARDPYCGWDPGTHACAAATTIANRTALIQDIERGNRGCESSRDTGPPPPLKTRSVLRGDDVLLPCDQPSNLARALWLLNGSMGLSDGQGGYRVGVDGLLVTDAQPEHSGNYGCYAEENGLRTLLASYSLTVRPATPAPAPKAPATPGAQLAPDVRL
modifications: bait human Fc-tagged dimer
B12: ADP280 (protein)
chain: TPPNAIVFTYGHLKVADMVKTGVIMNIIGVFCVFLAVNTWGRAIFDLDHFPDWANVTHIET
modifications: also: human Fc-tagged dimer

The binders below were run against Circumsporozoite protein (CSP) (Plasmodium falciparum (isolate 3D7), UniProt Q7K740) (assay: AVEXIS screen signal:noise (double-corrected)).
Chain of Circumsporozoite protein (CSP) (Q7K740 19-374): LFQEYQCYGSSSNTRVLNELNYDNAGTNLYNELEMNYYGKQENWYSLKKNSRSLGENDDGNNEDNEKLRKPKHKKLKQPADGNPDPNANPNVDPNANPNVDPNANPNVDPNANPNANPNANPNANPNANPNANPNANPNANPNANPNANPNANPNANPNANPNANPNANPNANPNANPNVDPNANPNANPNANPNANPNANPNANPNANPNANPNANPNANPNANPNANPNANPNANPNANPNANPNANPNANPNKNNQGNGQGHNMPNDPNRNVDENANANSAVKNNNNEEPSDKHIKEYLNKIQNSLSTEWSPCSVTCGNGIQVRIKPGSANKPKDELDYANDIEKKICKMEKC

| Binder | binding score |
| --- | --- |
| MAIHKALVMCLGLPLFLFPGAWAQGHVPPGCSQGLNPLYYNLCDRSGAWG (cysteine pairing not given here; also: human Fc-tagged dimer) [ADP328] | 1.01 |
| B1 | 1.3 |
| B2 | 1.67 |
| B3 | 2.59 |
| B4 | 1.12 |
| B5 | 1.2 |
| B6 | 1.88 |
| B7 | 0.991 |
| B8 | 0.643 |
| B9 | 1.01 |
| B10 | 1.09 |
| B11 | 3.59 |
| B12 | 0.749 |
